Reference: paper PMC3314626, “Crystal Structures of the Tetratricopeptide Repeat Domains of Kinesin Light Chains: Insight into Cargo Recognition Mechanisms” (PLoS ONE, 2012)

How the values were obtained:
Test in all cases: ITC; peptide (1-3 mM) in the syringe injected into 60-130 uM KLC1-TPR or KLC2-TPR (or mutant) in the cell; 25 C; 20 mM Bis-Tris pH 6.5, 500 mM NaCl, 0.5 mM TCEP; one-site binding model
[1] = target: KLC1 TPR domain (kinesin light chain 1 tetratricopeptide repeat domain) (human) (UniProt Q07866)
[2] = target: KLC1-TPR N343S mutant (human) (UniProt Q07866)
[3] = target: KLC1-TPR N301A mutant (human) (UniProt Q07866)

Row | Binder | Kd [1] | dH [1] | stoichiometry N [1] | Kd [2] | dH [2] | stoichiometry N [2] | Kd [3] | dH [3] | stoichiometry N [3]
1 | Ac-EYTCPTEDIYLE-OH [JIP1 peptide (C-terminal residues of JNK-interacting protein 1)] | 9.4 µM | -1.52 kcal/mol | 1.02 |  |  |  |  |  | 
2 | Ac-EMDWDDSALT-OH [ALC1 peptide (alcadein-1)] | 50.3 µM | -2.5 kcal/mol | 1.85 | 44.3 µM | -1.7 kcal/mol | 2.13 | 179 µM | -1.2 kcal/mol | 1.02
